44 variants from the Human Domainome abundance scans (Beltran et al. 2025) can be followed below.

± gives the uncertainty stated by the source.

First the molecules themselves.
B1: Proto-oncogene vav, residues 782 to 842; numbered along this chain, P15498 (parent)
chain: KYFGTAKARYDFCARDRSELSLKEGDIIKILNKKGQQGWWRGEIYGRVGWFPANYVEEDYS
B2: Retinoic acid receptor RXR-alpha, residues 132 to 208; numbered along this chain, P19793 (parent)
chain: KHICAICGDRSSGKHYGVYSCEGCKGFFKRTVRKDLTYTCRDNKDCLIDKRQRNRCQYCRYQKCLAMGMKREAVQEE

The variants in one data set derive from B1. In words: abundance fitness (aPCA) (normalised: wild type 0, dead -1); higher = more abundant; growth selection in yeast, the domain comes from the species named. Particulars: Homo sapiens.
Regarding KYFGTAKARYDFCARDRSELSLKEGDIIKILNKKGQQGWWRGEIYGRVGWFPANYVEEDYG, the abundance fitness is -0.194 ± 0.17.

KYFGTAKARYDFCARDRSELSLKEGDIIKILNKKGQQGWWRGEIYGRVGWFPANYVEEDYV: the abundance fitness was -0.216 ± 0.15.

Take KYFGTAKARYDFCARDRSELSLKEGDIIKILNKKGQQGWWRGEIYGRVGWFPANYVEEDYR: the abundance fitness is -0.011 ± 0.15.

For KYFGTAKARYDFCARDRSELSLKEGDIIKILNKKGQQGWWRGEIYGRVGWFPANYVEEDYL, the abundance fitness was -0.095 ± 0.12.

As to KYFGTAKARYDFCARDRSELSLKEGDIIKILNKKGQQGWWRGEIYGRVGWFPANYVEEDYH, the abundance fitness was found to be 0.019 ± 0.3.

For KYFGTAKARYDFCARDRSELSLKEGDIIKILNKKGQQGWWRGEIYGRVGWFPANYVEEDYI, the abundance fitness is -0.2 ± 0.35.

KYFGTAKARYDFCARDRSELSLKEGDIIKILNKKGQQGWWRGEIYGRVGWFPANYVEEDYF: the abundance fitness was -0.28 ± 0.16.

Take KYFGTAKARYDFCARDRSELSLKEGDIIKILNKKGQQGWWRGEIYGRVGWFPANYVEEDYW: the abundance fitness was -0.084 ± 0.17.

On to KYFGTAKARYDFCARDRSELSLKEGDIIKILNKKGQQGWWRGEIYGRVGWFPANYVEEDYD, for which the abundance fitness was -0.208 ± 0.4.

On to KYFGTAKARYDFCARDRSELSLKEGDIIKILNKKGQQGWWRGEIYGRVGWFPANYVEETYS, for which the abundance fitness worked out at 0.008 ± 0.082.

Regarding KYFGTAKARYDFCARDRSELSLKEGDIIKILNKKGQQGWWRGEIYGRVGWFPANYVEEFYS, the abundance fitness is -0.015 ± 0.11.

In the case of KYFGTAKARYDFCARDRSELSLKEGDIIKILNKKGQQGWWRGEIYGRVGWFPANYVEEGYS, the abundance fitness is -0.097 ± 0.088.

On to KYFGTAKARYDFCARDRSELSLKEGDIIKILNKKGQQGWWRGEIYGRVGWFPANYVEENYS, for which the abundance fitness was found to be 0.052 ± 0.1.

For the variant KYFGTAKARYDFCARDRSELSLKEGDIIKILNKKGQQGWWRGEIYGRVGWFPANYVEEPYS, the abundance fitness was -0.371 ± 0.11.

Regarding KYFGTAKARYDFCARDRSELSLKEGDIIKILNKKGQQGWWRGEIYGRVGWFPANYVEEHYS, the abundance fitness is -0.109 ± 0.11.

Turning to KYFGTAKARYDFCARDRSELSLKEGDIIKILNKKGQQGWWRGEIYGRVGWFPANYVEEQYS, the abundance fitness was 0.01 ± 0.11.

For KYFGTAKARYDFCARDRSELSLKEGDIIKILNKKGQQGWWRGEIYGRVGWFPANYVEEEYS, the abundance fitness was -0.038 ± 0.1.

For KYFGTAKARYDFCARDRSELSLKEGDIIKILNKKGQQGWWRGEIYGRVGWFPANYVEEVYS, the abundance fitness was -0.009 ± 0.073.

For the variant KYFGTAKARYDFCARDRSELSLKEGDIIKILNKKGQQGWWRGEIYGRVGWFPANYVEEYYS, the abundance fitness was -0.244 ± 0.1.

Turning to KYFGTAKARYDFCARDRSELSLKEGDIIKILNKKGQQGWWRGEIYGRVGWFPANYVEEMYS, the abundance fitness is -0.027 ± 0.12.

Take KYFGTAKARYDFCARDRSELSLKEGDIIKILNKKGQQGWWRGEIYGRVGWFPANYVEECYS: the abundance fitness is -0.125 ± 0.11.

KYFGTAKARYDFCARDRSELSLKEGDIIKILNKKGQQGWWRGEIYGRVGWFPANYVEEWYS: the abundance fitness was 0.048 ± 0.15.

Take KYFGTAKARYDFCARDRSELSLKEGDIIKILNKKGQQGWWRGEIYGRVGWFPANYVEERYS: the abundance fitness is -0.285 ± 0.081.

In the case of KYFGTAKARYDFCARDRSELSLKEGDIIKILNKKGQQGWWRGEIYGRVGWFPANYVEEAYS, the abundance fitness was -0.188 ± 0.082.

As to KYFGTAKARYDFCARDRSELSLKEGDIIKILNKKGQQGWWRGEIYGRVGWFPANYVEELYS, the abundance fitness was -0.138 ± 0.06.

As for KYFGTAKARYDFCARDRSELSLKEGDIIKILNKKGQQGWWRGEIYGRVGWFPANYVEDDYS, the abundance fitness was -0.435 ± 0.2.

KYFGTAKARYDFCARDRSELSLKEGDIIKILNKKGQQGWWRGEIYGRVGWFPANYVEQDYS: the abundance fitness is -0.19 ± 0.17.

Consider KYFGTAKARYDFCARDRSELSLKEGDIIKILNKKGQQGWWRGEIYGRVGWFPANYVETDYS, for which the abundance fitness is -0.129 ± 0.093.

As to KYFGTAKARYDFCARDRSELSLKEGDIIKILNKKGQQGWWRGEIYGRVGWFPANYVEWDYS, the abundance fitness was -0.364 ± 0.1.

In the case of KYFGTAKARYDFCARDRSELSLKEGDIIKILNKKGQQGWWRGEIYGRVGWFPANYVEYDYS, the abundance fitness was -0.065 ± 0.14.

With KYFGTAKARYDFCARDRSELSLKEGDIIKILNKKGQQGWWRGEIYGRVGWFPANYVESDYS, the abundance fitness was -0.362 ± 0.095.

Consider KYFGTAKARYDFCARDRSELSLKEGDIIKILNKKGQQGWWRGEIYGRVGWFPANYVEMDYS, for which the abundance fitness was -0.216 ± 0.094.

For KYFGTAKARYDFCARDRSELSLKEGDIIKILNKKGQQGWWRGEIYGRVGWFPANYVEADYS, the abundance fitness is -0.186 ± 0.077.

Turning to KYFGTAKARYDFCARDRSELSLKEGDIIKILNKKGQQGWWRGEIYGRVGWFPANYVERDYS, the abundance fitness is -0.336 ± 0.076.

On to KYFGTAKARYDFCARDRSELSLKEGDIIKILNKKGQQGWWRGEIYGRVGWFPANYVELDYS, for which the abundance fitness is -0.225 ± 0.077.

Turning to KYFGTAKARYDFCARDRSELSLKEGDIIKILNKKGQQGWWRGEIYGRVGWFPANYVEVDYS, the abundance fitness was -0.117 ± 0.089.

For the variant KYFGTAKARYDFCARDRSELSLKEGDIIKILNKKGQQGWWRGEIYGRVGWFPANYVEHDYS, the abundance fitness was -0.533 ± 0.31.

For KYFGTAKARYDFCARDRSELSLKEGDIIKILNKKGQQGWWRGEIYGRVGWFPANYVEGDYS, the abundance fitness was -0.338 ± 0.082.

Regarding KYFGTAKARYDFCARDRSELSLKEGDIIKILNKKGQQGWWRGEIYGRVGWFPANYVEPDYS, the abundance fitness is -0.169 ± 0.12.

For the variant KYFGTAKARYDFCARDRSELSLKEGDIIKILNKKGQQGWWRGEIYGRVGWFPANYVEFDYS, the abundance fitness is -0.297 ± 0.16.

With KYFGTAKARYDFCARDRSELSLKEGDIIKILNKKGQQGWWRGEIYGRVGWFPANYVENDYS, the abundance fitness is -0.6 ± 0.38.

Variants of B2 are the subject of another data set. The description is as above. Particulars: Homo sapiens.
With CHICAICGDRSSGKHYGVYSCEGCKGFFKRTVRKDLTYTCRDNKDCLIDKRQRNRCQYCRYQKCLAMGMKREAVQEE, the abundance fitness is -0.185 ± 0.053.

Turning to DHICAICGDRSSGKHYGVYSCEGCKGFFKRTVRKDLTYTCRDNKDCLIDKRQRNRCQYCRYQKCLAMGMKREAVQEE, the abundance fitness was -0.02 ± 0.05.

On to AHICAICGDRSSGKHYGVYSCEGCKGFFKRTVRKDLTYTCRDNKDCLIDKRQRNRCQYCRYQKCLAMGMKREAVQEE, for which the abundance fitness was -0.531 ± 0.094.
